Assay results reported in IntAct's records for PubMed 21556048.

Target: ep300_human EP300 (UniProt Q09472)
Sequence (Q09472 whole entry): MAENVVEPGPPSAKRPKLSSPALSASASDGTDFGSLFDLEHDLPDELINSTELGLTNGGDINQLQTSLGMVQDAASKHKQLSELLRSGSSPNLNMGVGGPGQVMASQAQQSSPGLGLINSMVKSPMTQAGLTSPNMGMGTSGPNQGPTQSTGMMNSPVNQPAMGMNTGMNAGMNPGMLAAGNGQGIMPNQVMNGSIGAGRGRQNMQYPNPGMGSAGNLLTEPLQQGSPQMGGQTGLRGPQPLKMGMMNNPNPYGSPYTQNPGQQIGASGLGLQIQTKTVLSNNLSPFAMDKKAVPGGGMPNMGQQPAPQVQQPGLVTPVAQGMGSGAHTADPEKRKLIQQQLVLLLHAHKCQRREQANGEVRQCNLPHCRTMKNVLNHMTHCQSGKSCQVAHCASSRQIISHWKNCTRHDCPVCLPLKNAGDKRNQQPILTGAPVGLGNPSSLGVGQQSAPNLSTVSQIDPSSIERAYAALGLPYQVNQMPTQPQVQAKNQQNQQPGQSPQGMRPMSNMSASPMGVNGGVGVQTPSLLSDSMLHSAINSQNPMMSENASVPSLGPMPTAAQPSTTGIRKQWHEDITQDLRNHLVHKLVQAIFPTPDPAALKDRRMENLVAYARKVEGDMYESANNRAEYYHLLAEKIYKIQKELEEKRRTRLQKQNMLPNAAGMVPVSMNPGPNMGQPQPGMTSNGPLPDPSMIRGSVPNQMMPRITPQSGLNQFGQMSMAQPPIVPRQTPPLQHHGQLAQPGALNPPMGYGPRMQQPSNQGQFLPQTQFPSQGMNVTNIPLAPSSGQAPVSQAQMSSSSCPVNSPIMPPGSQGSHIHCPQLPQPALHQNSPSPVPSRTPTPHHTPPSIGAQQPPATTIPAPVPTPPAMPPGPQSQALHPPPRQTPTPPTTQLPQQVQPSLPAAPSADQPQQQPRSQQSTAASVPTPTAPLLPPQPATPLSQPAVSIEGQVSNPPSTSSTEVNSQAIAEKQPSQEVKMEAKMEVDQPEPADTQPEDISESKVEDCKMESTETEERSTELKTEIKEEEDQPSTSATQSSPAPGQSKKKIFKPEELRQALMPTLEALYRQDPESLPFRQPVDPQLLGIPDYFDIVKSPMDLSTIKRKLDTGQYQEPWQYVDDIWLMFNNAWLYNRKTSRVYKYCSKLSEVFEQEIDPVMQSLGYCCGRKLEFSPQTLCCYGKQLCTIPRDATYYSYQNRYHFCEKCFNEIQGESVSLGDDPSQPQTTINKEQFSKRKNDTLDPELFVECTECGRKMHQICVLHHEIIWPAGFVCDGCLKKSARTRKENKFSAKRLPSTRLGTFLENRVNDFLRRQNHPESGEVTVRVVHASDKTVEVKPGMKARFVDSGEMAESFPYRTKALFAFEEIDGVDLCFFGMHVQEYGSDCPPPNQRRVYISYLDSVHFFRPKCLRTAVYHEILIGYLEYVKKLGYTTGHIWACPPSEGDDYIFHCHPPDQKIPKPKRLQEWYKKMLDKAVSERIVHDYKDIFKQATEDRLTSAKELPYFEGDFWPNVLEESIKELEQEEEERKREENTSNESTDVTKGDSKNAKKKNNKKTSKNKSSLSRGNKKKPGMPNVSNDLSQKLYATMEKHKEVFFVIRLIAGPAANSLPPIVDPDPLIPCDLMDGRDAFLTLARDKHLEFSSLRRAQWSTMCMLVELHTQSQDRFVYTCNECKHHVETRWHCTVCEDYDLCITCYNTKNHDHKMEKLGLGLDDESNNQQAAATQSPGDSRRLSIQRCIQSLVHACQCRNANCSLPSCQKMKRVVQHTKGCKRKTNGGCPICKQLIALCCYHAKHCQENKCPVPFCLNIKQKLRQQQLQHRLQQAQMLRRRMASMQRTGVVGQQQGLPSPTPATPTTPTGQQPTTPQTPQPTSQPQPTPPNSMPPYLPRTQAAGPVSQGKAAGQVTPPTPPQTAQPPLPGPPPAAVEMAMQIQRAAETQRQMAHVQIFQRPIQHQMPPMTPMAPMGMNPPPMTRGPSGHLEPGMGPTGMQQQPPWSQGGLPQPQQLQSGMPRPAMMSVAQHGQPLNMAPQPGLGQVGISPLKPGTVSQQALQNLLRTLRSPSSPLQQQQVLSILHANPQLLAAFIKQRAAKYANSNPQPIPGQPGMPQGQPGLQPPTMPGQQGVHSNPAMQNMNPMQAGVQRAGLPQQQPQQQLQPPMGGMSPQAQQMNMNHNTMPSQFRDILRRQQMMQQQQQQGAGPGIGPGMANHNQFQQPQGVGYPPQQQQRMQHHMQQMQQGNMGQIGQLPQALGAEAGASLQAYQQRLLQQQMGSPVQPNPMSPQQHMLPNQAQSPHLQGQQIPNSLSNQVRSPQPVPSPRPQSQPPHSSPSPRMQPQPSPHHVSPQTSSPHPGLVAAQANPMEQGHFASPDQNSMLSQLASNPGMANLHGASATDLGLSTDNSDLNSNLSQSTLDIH

Chain of Myocyte-specific enhancer factor 2C (Homo sapiens), Q06413 T80A (Q06413 whole entry T80A): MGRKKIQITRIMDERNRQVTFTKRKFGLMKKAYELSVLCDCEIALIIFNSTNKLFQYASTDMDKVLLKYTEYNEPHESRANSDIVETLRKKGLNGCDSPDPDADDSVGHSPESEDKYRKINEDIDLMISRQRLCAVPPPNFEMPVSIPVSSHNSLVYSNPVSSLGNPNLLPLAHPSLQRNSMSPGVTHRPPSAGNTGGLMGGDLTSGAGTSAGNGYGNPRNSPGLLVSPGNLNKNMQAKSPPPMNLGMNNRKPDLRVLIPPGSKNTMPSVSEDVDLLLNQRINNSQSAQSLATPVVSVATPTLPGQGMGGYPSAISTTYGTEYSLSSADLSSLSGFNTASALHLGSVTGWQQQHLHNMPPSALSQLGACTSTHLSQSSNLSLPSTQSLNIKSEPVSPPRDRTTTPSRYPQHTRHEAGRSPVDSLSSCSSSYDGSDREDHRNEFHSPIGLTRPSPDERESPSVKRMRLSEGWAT

In the case of “Myocyte-specific enhancer factor 2C (Homo sapiens), Q06413 T80A”, the “effect of a mutation on the interaction” value is reported as “decreasing interaction”.
